Results taken from patent US20050154189A1 (MAXYGEN, published 2005).

Biological target: T1, Soluble CD28-Ig (human, UniProt P10747 19-152, biotin-conjugated (NHS-biotin) in the labelled-ligand FACS assays)
T1 construct: extracellular domain; Bought from R&D Systems; also called sCD28-Ig; CD28-Ig Fc; not shown: Fc portion of human IgG1
Experiment: two-colour FACS profile on transfected cells; score of preference for CD28-Ig over CTLA-4-Ig vs WT hB7-1

| Binder | Binding Score |
| --- | --- |
| Round 2 CD28B6-6 (ligand) ITPKSVTKRVKETVMLSCDYSTSTEELTSLRIYWQKDSKMVLAILPGKVQVWPEYKNRTITDMNDNPRIVILALRLSDKGTYTCVIQKPVLKGAYKLEHLTSVTLSIRADFPVPSITDIGHPAPNVKRIRCSASGGFPEPRLAWMEDGEELNAVNTTVDQDLDTELYSVSSELDFNATNNHSIVCLIKYGELSVSQIFPWSKPKQEPPIDQLPFWVIVPVSGALVLTAVVLYCLACRHVAR | 1 |
| Round 2 CD28BP-14 (ligand) GISQVTKSVKEMAALSCDYNISIDELARMRIYWQKDQQMVLSIISGQVEVWPEYKNRTITDMNDNPRIVILALRLSDSGTYTCVIQKPVLKGAYKLEHLASVRLMIRADFPVPTINDLGNPSPNIRRLICSTSGGFPRPHLYWLENGEELNATNTTVSQDPGTELYMISSELDFNVTNNHSIVCLIKYGELSVSQIFPWSKPKQEPPIDQLPFWVIIPVSGALVLTAVVLYCLACRHVARWKRTRRNEETVGTERLSPIYLGSAQSSG | 2 |
| Round 2 CD28BP-8 (ligand, also called clone CD28BP-8) ITPKSVTKRVKETVMLSCDYNTSTEELTSLRIYWQKDSKMVLAILPGKVQVWPEYKNRTITDMNDNPRIVILALRLSDSGTYTCVIQKPVLKGAYKLEHLASVRLMIRADFPVPSITDIGHPAPNVKRIRCSASGGFPEPRLAWMEDGEELNAVNTTVDQDLDTELYSVSSELDSNVTNNHSIVCLIKYGELSVSQIFPWSKPKQEPPIDQLPFWVIIPVSGALVLTAVVLYCLACRHVARWKRTRRNEETVGTERLSPIYLGSAQSSG | 2 |
| Round 2 CD28C7-3 (ligand) ITPKSVTKRVKETVMLSCDYSTSTEELTSLRIYWQKDSKMVLAILPGKVQVWPEYKNRTITDMNDNPRIVILALRLSDSGTYTCVIQKPDLKGAYKLEHLTSVRLMIRADFPVPSITDIGHPAPNVKRIRCSASGDFPEPRLAWMEDGEELNAVNTTVDQDLDTELYSVSSELDFNVTNNHSIVCLIKYGELSVSQIFPWSKPKQEPPIDQLPFWVIIPVSGALVLTAVVLYCLACRHVARWKRTRRNEETVGTERLSPIYLGSAQSSG | 1 |
| Round 1 CD28BP-71 (ligand, also called R1clone71; Clone 71) ITPKSVTKRVKETVMLSCDYNTSTEELTSLRIYWQKDSKMVLAILPGKVQVWPEYKNRTITDMNDNPRIVILALRLSDSGTYTCVIQKPVLKGAYKLEHLASVRLMIRADFPVPTINDLGNPSPNIRRLICSTSGGFPRPHLYWLENGEELNATNTTLSQDPETKLYMISSELDFNMTSNHSFLCLVKYGDLTVSQTFYWQESKPTPSANQHLTWTIIIPVSAFGISVIIAVILTCLTCRNAAIRRQRRENEVEMQSCSQSP | 1 |
| Round 2 CD28E2-5* (ligand) TTPKSVTKRVKETVMLSCDYNTSTEELTSLRIYWQKDSKMVLAILPGKVQVWPEYKNRTITDMNDNPRIVILALRPSDSGTYTCVIQKPVLKGAYKLEHLASVRLMIRADFPVPTINDLGNPSPNIRRLICSTSGGFPRPHLYWLENGEELNATNTTLSQDPETKLYMISSELDFNMTSNHSFLCLVKYGDLTVSQTFYWQESKPTPSANQHLTWTIIIPVSAFGISVIIAVILTCLTCRNAAIRRQRRENEVEMQSCSQSP | 0 |
| Round 2 CD28D5-6 (ligand) ITPKSVTKRVKETVMLSCDYSTSTEELTSLRIYWQKDSKMVLAILPGKVQVWPEYKNRTITDMNDNPRIVILALRLSDSGTYTCVIQKPVLKGAYKLEHLTSVRLMIRADFPVPTINDLGNPSPNIRRLICSTSGGFPRPHLYWLENGEELNATNTTLSQDPETKLYMISSELDFNMTSNHSFLCLVKYGDLTVSQSFYWQESKPTPSANQHLTWTIIIPVSAFGISVIIAVILTCLTCRNAAIRRQRRENEVEMQSCSQSP | 0 |
| Round 2 CD28E8-6 (ligand) ITPKSVTKRVKETVMLSCDYNTSTEELTSLRIYWQKDSKMVLAILPGKVQVWPEYKNRTITDMNDNPRIVILALRLSDSGTYTCVIQKPVLKGAYKLEHLTSVRLMIRADFPVPTINDLGNPSPNIRRLICSTSGGFPRPHLYWLENGEELNATNTTVSQDPETKLYMISSELDFNTTSNHSFLCLVKYGDLTVSQTFYWQESKPTPSANQHLTWTIIIPVSAFGISVIIAVILTCLTCRNAAIRRQRRENEVEMQSCSQSP | 0 |
| Round 2 CD28B6-3 (ligand) ITPKSVTKRVKETVMLSCDYNTSTEELTSLRIYWQKDSKMVLAILPGKVQVWPEYKNRTITDMNDNPRIVILALRLSDSGTYTCVIQKPDLKGAYKLEHLTSVRLMIRADFPVPTINDLGNPSPNIRRLICSTSGGFPRPHLYWLENGEELNATNTTLSQDPETKLYMISSELDFNMTSNHSFLCLVKYGDLTVSQTFYWQESKPTPSANQHLTWTIIIPVSAFGISVIIAVILTCLTCRNAAIRRQRRENEVKMQSCSQSP | 1 |
| Round 2 CD28F3-1 (ligand) ITPKSVTKRVKETVMLSCDYNTSTEELTSLRIYWQKDSKMVLAILPGKVQVWPEYKNRTITDMNDNPRIVILALRLSDSGTYTCVIQKPDLKGAYKLEHLTSVRLMIRADFPVPTINDLGNPSPNIRRLICSTSGGFPRPHLYWLENGKELNATNTTLSQDPETKLYMISSELDFNMTSNHSFLCLVKYGDLTVSQTFYWQESKPTPSANQHLTWTIIIPVSAFGISVIIAVILTCLTCRNAAIRRQRRENEVEMQSCSQSP | 0 |
| Round 2 CD28B4-3 (ligand) ITPKSVTKRVKETVMLSCDYNTSTEELTSLRIYWQKDSKMVLAILPGKVQVWPEYKNRTITDMNDNPRIVILALRLSDSGTYTCVIQKPVLKGAYKLEHLTSVRLMIRADFPVPTINDLGNPSPNIRRLICSTSGGFPRPHLYWLENGEELNATNTTLSQDPETKLYMISSELDFNMTSNHSFLCLVKYGDLTVSQTFYWQESKPTPSANQHLTWTIIIPVSAFGISVIIAVILTCLTCRNAAIRRQRRENEVEMQSCSQSP | 1 |
| Round 2 CD28D10-4 (ligand) SGITPKSVTKRVKETVMLSCDYNTSTEELTSLRIYWQKDSKMVLAILPGKVQVWPEYKNRTITDMNDNPRIVILALRLSDKGTYTCVVQKNENGSFRREHLTSVTLSIRADFPVPSITDIGHPAPNVKRIRCSASGGFPEPRLAWMEDGEELNAVNTTVDQDLDTELYSVSSELDFNVTNNHSIVCLIKYGELSVSQIFPWSKPKQEPPIDQLPFWVIIPVSGALVLTAVVLYCLACRHVARWKRTRRNEETVGTERLSPIYLGSAQSSG | 0 |
| Round 2 CD28G1-5 (ligand) SGITPKSVTKRVKETVMLSCDYSTSTEELTSLRIYWQKDSKMVLAILPGKVQVWPEYKNRTFPDIINNLSLMILALRLSDKGTYTCVVQKNENGSFRREHLTSVTLSIRADFPVSSITDIGHPAPNVKRIRCSASGGFPEPRLAWMEDGEELNAVNTTVDQDLDTELYSVSSELDFNVTNNHSIVCLIKYGELSVSQIFPWSKPKQEPPIDQLPFWVIIPVSGALVLTAVVLYCLACRHVARWKRTRRNEETVGTERLSPIYLGSAQSSG | 1 |
| Round 2 CD28A8-6 (ligand) SGITPKSVTKRVKETVMPSCDYSTSTEELTSLRIYWQKDSKMVLAILPGKVQVWPEYKNRTITDMNDNPRIVILALRLSDSGTYTCVVQKNENGSFRREHLTSVTLSIRADFPVPSITDIGHPAPNVKRIRCSASGGFPEPRLAWMEDGEELNAVNTTVDQDLDTELYSVSSELDFNVTNNHSIVCLIKYGELSVSQIFPWSKPKQEPPIDQLPFWVIIPVSGALVLTAVVLYCLACRHVARWKRTRRNEETVGTERLSPIYLGSAQSSG | 1 |
| Round 2 CD28BP-11 (ligand) SGITPKSVTKRVKETVMLSCDYNASTEELTSLRIYWQKDSKMVLAILPGKVQVWPEYKNRTITDMNDNPRIVILALRLSDKGTYTCVVQKNENGSFRREHLTSVTLSIRADFPVPSITDIGHPAPNVKRIRCSASGGFPEPRLAWMEDGEELNAVNTTVDQDLDTELYSVSSELDFNVTNNHSIVCLIKYGELSVSQIFPWSKPKQEPPIDQLPFWVIIPVSGALVLTAVVLYCLACRHVARWKRTRRNEETVGTERLSPIYLGSAQSSG | 2 |
| Round 2 CD28F3-5 (ligand) SGITPKSVTKRVKETVMLSCDYNTSTEELTSLRIYWQKDSKMVLAILPGKVQVWPEYKNRTITDMNDNPRIVILALRLSDSGTYTCVVQKNENGSFRREHLTSVTLSIRADFPVPSITDIGHPAPNVKRIRCSASGGFPEPRLAWMEDGEELNAVNTTVDQDLDTELYSVSSELDFNVTNNHSIVCLIKYGELSVSQIFPWSKPKQEPPIDQLPFWVIIPVSGALVLTAVVLYCLACRHVARWKRTRRNEETVGTERLSPIYLGSAQSSG | 0 |
| Round 2 CD28BP-17 (ligand) SGITPKSVTKRVKETVMLSCDYSTSTEELTSLRIYWQKDSKMVLAILPGKVQVWPEYKNRTFPDIINNLSLMILALRLSDKGTYTCVVQKNENGSFRREHLTSVTLSIRADFPVPSITDIGHPAPNVKRIRCSASGDFPEPRLAWMEDGEELNAVNTTVDQDLDTELYSVSSELDFNVTNNHSIVCLIKYGELSVSQIFPWSKPKQEPPIDQLPFWVIIPVSGALVLTVVVLYCLACRHVARWKRTRRNEETVGTERLSPIYLGSAQSSG | 2 |
| Round 2 CD28D2-3 (ligand) ITPKSVTKRVKETVMLSCDYNTSTEELTSLRIYWQKDSKMVLAILPGKVQVWPEYKNRTITDMNDNPRIVIQALRLSDSGTYTCVIQKPVLKGAYKLEHLASVRLMIRADFPVPTDLGNPSPNIRRLICSTSGGFPRPHLYWLENGEELNATNTTVSQDPGTELYMISSELDFNVTNNHSIVCLIKYGELSVSQIFPWSKPKQEPPIDQLPFWVIIPVSGALVLTAVVLYCLACRHVARWKRTRRNEETVGTERLSPIYLGSAQSSG | 1 |
| Round 2 CD28C2-4 (ligand) GISQVTKSVKEMAALSCDYNISIDELARMRIYWQKDQQMVLSIISGQVEVWPEYKNRTITDMNDNPRIVILALRLSDSGTYTCVIQKPVLKGAYKPEHLASVRLMIRADFPVPTINDLGNPSPNIRRLICSTSGGFPRPHLYWLENGEELNATNTTLSQDPETKLYMISSELDFNMTSNHSFLCLVKYGDLTVSQTFYWQESKPTPSANQHLTWTIIIPVSAFGISVIIAVILTCLTCRNAAIRRQRRENEVEMQSCSQSP | 1 |
